Series [1] concerns the molecule itself. In words: cell-based or functional assay.
Series [2] concerns the molecule itself. In words: crystal structure; hanging drop vapor diffusion, 18°C, 0.1 M MES pH 6.5, 1.1 M ammonium sulfate; two molecules in the asymmetric unit.

B1: FIC-1_(134-508) E274G/I298D (domain or fragment, C. elegans, UniProt Q23544 134-508, looked up)
chain: DEKRENDPAKVKEAILAAKAAGRSRKDGNLERAMTIMEHAMALAPTNPQILIEMGQIREMHNELVEADQCYVKALAYDPGNSEALVLRARTTPLVSAIDRKMLRSVHDLRDEFNHLQHSTALRRMMRETYFLYVYHTVAIGGNTLSLGQTRAILESGMVIPGKSDREHNEVIGMDAALRFLNCSLLSKEHDEISIDDILEMHRRVLGNADPVEAGRIRTTQVYVGRFTPVSPEYVMEQLKDIVDWLNDESTLTIDPIERAAIAHYKLVLVHPFTDGNGRTARLLLNLIMMRSGFPPVILPVETRAEYYASLHVANLGDLRPFVRYVAKHSEASIQRYIGAMKTSSDNILNSGDSKLTPEESEVSEKIEAECRAGN
Regarding B1, in series [1], the “self-AMPylation of FIC-1 E274G/I298D relative to FIC-1 E274G (in vitro AMPylation with α33P-ATP, autoradiography)” value turned out to be 46% and the “target (histone H3) AMPylation by FIC-1 E274G/I298D relative to FIC-1 E274G (in vitro AMPylation with α33P-ATP, autoradiography)” value is 11%.

B2: FIC-1_(134-508) (domain or fragment, C. elegans, UniProt Q23544 134-508, looked up)
chain: DEKRENDPAKVKEAILAAKAAGRSRKDGNLERAMTIMEHAMALAPTNPQILIEMGQIREMHNELVEADQCYVKALAYDPGNSEALVLRARTTPLVSAIDRKMLRSVHDLRDEFNHLQHSTALRRMMRETYFLYVYHTVAIEGNTLSLGQTRAILESGMVIPGKSIREHNEVIGMDAALRFLNCSLLSKEHDEISIDDILEMHRRVLGNADPVEAGRIRTTQVYVGRFTPVSPEYVMEQLKDIVDWLNDESTLTIDPIERAAIAHYKLVLVHPFTDGNGRTARLLLNLIMMRSGFPPVILPVETRAEYYASLHVANLGDLRPFVRYVAKHSEASIQRYIGAMKTSSDNILNSGDSKLTPEESEVSEKIEAECRAGN
notes: C. elegans Fic protein FIC-1, residues 134-508; transmembrane helix and membrane proximal domain excluded; also called FIC-1 wild type; FIC-1 wildtype (wt); source: E. coli LOBSTR-RIL(DE3), purified (Ni-Sepharose, size-exclusion chromatography); not shown: His6, N-terminal, kept
Consider B2, for which, in series [2], the binding result was “binds”.

B3: FIC-1_(134-508) E274G (domain or fragment, C. elegans, UniProt Q23544 134-508, looked up)
chain: DEKRENDPAKVKEAILAAKAAGRSRKDGNLERAMTIMEHAMALAPTNPQILIEMGQIREMHNELVEADQCYVKALAYDPGNSEALVLRARTTPLVSAIDRKMLRSVHDLRDEFNHLQHSTALRRMMRETYFLYVYHTVAIGGNTLSLGQTRAILESGMVIPGKSIREHNEVIGMDAALRFLNCSLLSKEHDEISIDDILEMHRRVLGNADPVEAGRIRTTQVYVGRFTPVSPEYVMEQLKDIVDWLNDESTLTIDPIERAAIAHYKLVLVHPFTDGNGRTARLLLNLIMMRSGFPPVILPVETRAEYYASLHVANLGDLRPFVRYVAKHSEASIQRYIGAMKTSSDNILNSGDSKLTPEESEVSEKIEAECRAGN
notes: C. elegans Fic protein FIC-1, residues 134-508, constitutively active mutant; transmembrane helix and membrane proximal domain excluded; Non-cleavable N-terminal 6x His tag; also called FIC-1 E274G; source: E. coli LOBSTR-RIL(DE3), purified (Ni-Sepharose, size-exclusion chromatography); not shown: His6, N-terminal, kept
On to B3, for which the binding result in series [2] is given as “binds”.

The record behind these values is publication PMC4854385, “The Caenorhabditis elegans Protein FIC-1 Is an AMPylase That Covalently Modifies Heat-Shock 70 Family Proteins, Translation Elongation Factors and Histones” (PLoS Genetics, 2016).
